Source: patent WO2024019110A1 (dated 2024)

How the values were obtained:
Test in all cases: BLI (Octet), biotinylated RBD on streptavidin biosensor, Fab in solution
[1] = target: Delta strain RBD, biotinylated (SARS-CoV-2 (Delta strain), UniProt P0DTC2 331-529)
[2] = target: Omicron strain (BA.1) RBD, biotinylated (SARS-CoV-2 (Omicron strain BA.1), UniProt P0DTC2 331-529)
[3] = target: Omicron strain (BA.2) RBD, biotinylated (SARS-CoV-2 (Omicron strain BA.2), UniProt P0DTC2 331-529)

Measured: Kd

B1: recombinant Fab protein of antibody No. 2 (Fab, V domains shown)
VH: EVQLVESGGGVVQPGRSLRLSCAASGFKFSKFAMHWVRQAPGKGPEWVAVISYDGNQYHSADSVKGRFTISRDNSFNTLYLQMNSLGPEDTAVYYCARDGPDTSGYYANIYFDFWGQGTLVTVSS
VL: QSVLTQPPSVSGAPGQRVTISCTGSSSNIGAGYDVHWYQQLPGRAPKLLIFDNNNRPSGVPDRFSGSKSGTSASLAITGLQTEDEAYYYCQSYDNSLILAVFGGGTKVTVL
≤ 100 nM: all assays above

B2: recombinant Fab protein of antibody No. 7 (Fab, V domains shown)
VH: EVQLLESGGGLVQPGGSLRLSCAASGFTFSRYALSWVRQAPGKGLEWVSAISGAAITTYYADSVKGRFTISRDDSRNTLFMQMDSLRAEDTAVYYCAKGDYYDSSGYLAEYFPHWGQGTLVTVSS
VL: SYELTQPPSVSVSPGQTARITCFADALPKQHAYWYQQKAGQAPVLVIFKDTERPSGIPKRFSGSRSGATVTLTISGVQAEDEADYYCQSTDISGVLFGGGTKLTVL
≤ 100 nM: all assays above

B3: recombinant Fab protein of antibody No. 6 (Fab, V domains shown)
VH: QVQLVQSGPEVKKPGTSVKVSCKASGFTFYYSAVQWVRQARGQRLEWLGWMAVGSGKANYAQKFQERLTLTRDMSTSTAYMELSSLRSEDTAVYYCAAPNCTGGSCYDGFNLWGQGTVVTVSS
VL: EIVLTQSPGTLSLSPGDRAILSCRASQTVNSNYLAWYQQKPGQAPRLLIYGTSSRATGIPDRFSGSGSGTDFTLTISRLEPEDFAVYYCQQYGSSPWLFGQGTKVEIK
≤ 100 nM: all assays above

B4: recombinant Fab protein of antibody No. 5 (Fab, V domains shown)
VH: EVQLVESGGGLVQPGGSLRLSCAASGFTFYSYWMTWVRQAPGKGLEWVANIKHDESESHYVDSVRGRFTISRDNAKNSVYLQMKGLRAEDTAVYYCARDGGYNILTAYYHAPSYWGQGTLVTVSS
VL: QSALTQPASVSGSPGQSITISCTGTSSDVGGYNFVSWYRQYPGKAPQLMIYDVSRRPSGDSDRFSGSKSGNTASLTISGLQAEDEAEYHCSSYTGRSPYVVFGGGTKVTVL
≤ 100 nM: all assays above
